# Test results reported in the nanobody polyreactivity screen of Harvey et al. (2022).
# Assay: yeast display, Sf9 membrane polyspecificity reagent, FACS + sequencing; frameworks hold sequencing errors
# Procedure, shortened: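 Sorting gates, low and high (top ~1%), were placed on anti-HA fluorescence to track expression and on streptavidin fluorescence to track reagent binding. A clone's polyreactivity label is taken from the gate it came out of. The reagent was 10% biotinylated, detergent-solubilized Sf9 membrane, applied for 1 hour at 4 °C to galactose-induced yeast display cells.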
row,Sequence,polyreactivity (PSR sort gate)
1,QVQLVESGGGLVQAGGSLRLSCAASGSIFSYTMGWYRQAPGKERELVAAITSGGITYYADSVKGRFTISRDNAKNTVYLQMNSLKPEDTAVYYCNKDVGFTRPLYYWGQGTQVTVSS,low polyreactivity
2,QVQLVESGGGLVQAGGSLRLSCAASGSTFRANAMGWYRQAPGTERELVAVISSGGRTYYADSVKGRFTMSRDNAKTTVYLQMNSLKPEDTAVYYCAKDDYSVWYYYDYDYWGQGTQVTVSS,high polyreactivity
3,QVQLVESGGGLVQAGGSLSLSCAASGRNFAYYAMGWYRQAPGKERELVAGISQRGSRTYYADSVKGRFTISRDNAKNTVYLQMNSLKPEDTAVYYCAARDRRSVTMDYWGQGTQVTVSS,high polyreactivity
4,QVQLVESGGGLVQAGGSLRLSCAASGITFYDYAMGWSRQAPGKDRELVSAINSSGVRTYYADSVKGRFTISRDNAKNTVYLQMNSLKPEDTAVYYCAAERYYYFVPYWYDYWGQGTQVTVSS,high polyreactivity
5,QVQLVESGGGLVQAGGSLRLSCAASGRIFYPYAMGWYRQAPGKERELVAAIDKGGGSTYYADSVKGRFTISRDNAKNTVYLQMNSLKPEVTAVYYCAAGWEYPYDYWGQGTQVTVSS,low polyreactivity
6,QVQLVESGGGLVQAGGSLRLSCAASGRTFHGNAKGWYRTAPGKERELVAAISYSGGRTYYADSVKARFTISRDNAKNTVYLQMNSLKPEDTAVYYCAAWGSSYSFDYWGQGTQVTVSS,high polyreactivity
7,QVQLVESGGGLVQPGGSLRLTCAASGGIFVTYTMGWYRQAPGKDRELVAGINSRSGSTYADSVKGGFTISRDNAKNTVYLQRTSLKLEDTAVYYCAADRIDLGRASRYGYWGQGTQVTVSS,low polyreactivity
8,QVQLVESGGGIVQAGGSLRLSCAASGRNFYYYAMGWYRQAPGKERELVAAISWSGGRTYYADSVKGRFTISRDNAKNTVYFQMNSLKPEDTAVYYSNAEPPRGYSVSSGGEMDYWGQGTEVTVSS,low polyreactivity
9,QVQLVESGGGLVQAGGSLRLSCAASGFIFYYNAMGWYRQAPGKERELVAAISSRGGSTYYADSVKGRFTISRDNAKNTVYLQMNSLKPEDTAVYYCNAKRYFRNHFRTGGMYYWGQGTQVTVSS,high polyreactivity
10,QVQLEESGGGFVQAGGSLRLSCAASGFIFRRYAMGWYRQAPGKERELVAAISWRSGSTYYADSVKGRFTISRDNAKNTVYSPMKCLKPEDTAVYYCAAKDQATYQLYYWGQGTQVTVSS,high polyreactivity
11,QVQLVESGGGLVQAGGSLRLSCAASGRNFPLNGMGWYRQAPGKERELVAAISYRGGSTYYADSVKGRFTISRDNPKNTVYLQMNSLKPEDTAVYYCAADYVSRRYYYWGQGTQVTVSS,high polyreactivity
12,QVQLVESGGGLFKAGGSLRLSCAASGFNFSNYAKGWYRQAPGKERELVATISWSGGRTYYADSVKGRFTISRDNAKNTVYLQMNSLKPEDTEVYYCAAEYYTGYFKYDYWGQGTQVTVSS,high polyreactivity
13,QVQLVESGGGLVQAGGSLRLSCAASGSIFRRYAMGWYRQAPGKERELVATISYRGGTTYYADSVKVRFTISRDNAKNTVYLQMNSLKPEDTAVYYCNTLYYRGIYDHWGQGTQVTVSS,high polyreactivity
14,QVQLVESGGGLVQAGGSLRLSCAASGRIRFYAMGWYIQAPGKERELVAAISSSGGSTYYADSVKGRFTISRDNAKNTVYLQMNSLKPEDTAVYYCAAAWYYLGTRAQLYDYWGQGTQVTVSS,low polyreactivity
15,QVQLVESGGGLVQAGGSLRLSCAASGFIFWWYAMGWYRQAPGKERELVATITASVGSTNYADSVKGRFTISRDNAKNTVYLQMNSLKPEDTAVYYCATDIIGAIRDWDHTRMDYWGQGTQVTVSS,low polyreactivity
16,QVQLVESGGGLVQAGGSLRFSCAASGFTFSSNAMGWYRQAPGKERELVAAITASGASTYYADSVKGRFTISRDHAKNTVYLQMNSLKPEDTAVYYCAVKTSPRRYYWGQGTQVTVSS,high polyreactivity
17,QVQLVESGGGLVQAGGSLRLSCAASGRTFGSYAMGWYRQAPGKERELVAAISKGGGSTYYADSVKGRFTISRDNAKNTVYLQMNSLKPEDTAVYYCAKRRFDYYYYGGQGTQVTVSS,high polyreactivity
18,QVQLVESGGGLVQAGASLRLSCAASGLTFIFYAMGWYRQAPGKERELVAAISVSGGCTYYADSVKGRFTISRDNAKNTVYLQMNSLKPEDTAVYYCAADREHFATYGPHMDYWGQGTQVTVSS,low polyreactivity
19,QVQLVESGGGLVQAGGSLRLSCAASGRTFAAYAMGWYRQAPGKERELGAAISIGGSTNYADSVKGRFTISRDNAKNTVYLQMNSLKPEDSAVYYCAAPWYRGGTTESYYWGQGTQVTVSS,high polyreactivity
20,QVQLDESGGGLVQAGGSHRLSCAASGYIFGYYAMGWSRQAPGKERELVAAISKSGTDTYYADSVKGRFTISRDYAKNTVFLQMNSLKPEDTAVYYCNALLRGYSYGYDYWGQGTQVTVSS,high polyreactivity
21,QVQLVESRGGLVQAGGSLRLSYAASGYFFRYNSMGWYRQAPGTERELVAAMSRGGTTYYADSVTGRFTISRDNAMNTVYLQMNSLKPEDTEVYYCAAGRKVQSRRYGYWGQGTQVTVSS,high polyreactivity
22,QVQLVESGGGLVQEGGSLRLRCAASGSIFPYNAMGWYRQAPGKERELVAAISSTGGRTYYADSVKGRFTISRDNAKNTVYLQMNSLKPEDTAVYYCAARLYDKPGFYSWGEGTQVTVSS,high polyreactivity

row,Sequence,polyreactivity (PSR sort gate)
1,QVQLGESGGGLVQAGGSLRLSCAASGRTCWPYARGWYRQAPGKEMELVAAISRGDRTHYADSVKGRFTISRDNAKKTVYLQMNSLIPEVTAVFYCAADSRYYYYVYKISGDYDSWGQGTHVTVSS,low polyreactivity
2,QVQLVESGGGLVQAGGSLRLSCAASGFTFAKNAMGWYRPAPGKERELVATISRSGGSTYYADSVKGRFTISRDNAKNTVYLQMNSLKPEDTAVYDCAADRSYGVLGNEGGYWGQGTQVTVSS,high polyreactivity
3,QVQLVESGGGLVQAGGSLRLSCAASGRTLASNAMGWYRQAPGKEREFVAAITDSGGRTYYADSVKGRFTISRDNAKNTVYLQMNSLKPEDTAVYYCNAYQYYERYDTYLFRYDYWGQGTQVTVSS,low polyreactivity
4,QVQLVESGGGLVQAGGSLLLSCAASGIIFTRYVMGWYRQAPGKERELVATIRIGGSTTYADSVKGRFTISRDNAKITVYLQMYSLKPEDTAVYYCAADTWYITTYGGAGSYAYGFYYWGQGTQVTVSS,low polyreactivity
5,QVQLVESGGGLVQAGGSLRLSCAASGRTFGFYAMGWYRQAPGKEREFVAAIYKSGGSTYYADSVKGRFTISRDIANNTVYLQMISLKPEDTAVYYCIKKVGSYYRSYYYWGQGTQVTVSS,high polyreactivity
6,QVQLVESGGGLVQAGGSLRLSCAASGFTFARYAMGWYIQAPGKERELVASISGSGESTYYADSVKGRFTISRDNAKNTVYLQMNSLKPEDTAVYYCAAEGSFLFFSWYWPEYDYWGQGTQVTVSS,high polyreactivity
7,QVQLVESGGGLVQAGGSIRLSCAASGRTFDPYSRGWYRQAPGKERELVAAISRSGGSTYYADSVKGRFTISRDNAKNTVYLQLNSLKPEDTAVYYFDADASRYYYEYDYWGQGTQVNVSS,high polyreactivity
8,QVQLVESGGGLVQAGGSLRLSCAASGFTFDYNAMGWSRQAPGKERELVAVISSSGSRTYYADSVKGRFTISRDNAKNTVYLQMNSLKPEDTAVYYCAAARIGTRDYWGQGTQVTVSS,high polyreactivity
9,QVQLVESGGGLVQAGGSLRLSCAASGSTFTGYAMGWYRQAPGKERELVAAISRSVGRTYYADSVKGRFTISRDNAKNTVYLQMNSLKPEDTAVYYCAADVYLTGSRNYYWGQGTQVTVSS,high polyreactivity
10,QVQLVVSGGGLDQARGSLSLSCAASGRNFTSYAMGWYRQAPWKERELVAAISWSVGSTYYADSVKGRFTISRDNAKNTVYLQMNSLKPEDTSVYYCNAVYPSVYPVSTRYYWGQGTQVTVSS,high polyreactivity
11,QVQLVESGGGLVQAGGSLRLSCAASGITFLANAMGWYRQAPGKERELVATITSRGASTYYADSVKGRFTISRDNAKNTVYLQMNSLKPEDSAVYYCAATVRRRYERYNYWGQGTQVTVSS,high polyreactivity
12,QVQLVESGGGLVQAGGSLRLSCAASGSTFNIYVMGWYRQAPGKERELVAAITTSGRTYYADSVKGRFTISRDNAKNTVYLQMNSLKPEDTAVYYCAAVPVRYRYSYGYYYWGQGTQVTVSS,high polyreactivity
13,QVQLVESGGGLVQAGGSLRLSCAASGRIFYAYAMGWYRPAPGKERELVAAITWRGGRTFYADSVKGRFTISRDNAKNTVYLQMNSLKPEDTAVYYCATRGAPYGMDYWGQGTQVTVSS,high polyreactivity
14,QVQLVESGGGLVQAGGSLRLSCAASGFTYYIYAMGWYRQAPGKERELVAAISRSAGITNYADSVKGRFTISRDNAKNTVYLQMNSLKAEDTAVYYCAAEVGYWGYQISGDYWGQGTQVTVSS,low polyreactivity
15,QVQLVESGGGLDQAGGSLRLIFAASGRTFYRYAMGLYRQAPGKERELVAAISVRGGSTYYADSVKGRFTISRDNAKNTVYLQMNSLKPEDTAVYYCDAEYVAPWYIGLEVTRLIYWGQGTQVTVSS,high polyreactivity
16,QVQLVESGGGLVQAGGSLRLSWAASGRLFDGYAMGWYRQAPGTERELVATISSSGGATYYADSVKGRFTISRDNAKNTVYLQMNSLKPEDTAVYYCATAGSVSHWYSYFAFWERDYWGQGTQVTVSS,low polyreactivity
17,QVQLVESGGGLVQAGGSLRLSCAASGRNFYTYTMGWYRQAPGKERELVAAISKSGTSTYYADSVKGRFTISRDNAKNTVYLQMTSLKPEDSAVYYCAARAYYARFLMGYWGQGTQVTVSS,high polyreactivity
18,QVQLGESGGGLVQAGGTLRVSCAPSGITFYGYAMGWYRQAPGKERELVAAINRGGTGTYYADSVKGRFTISRDNAKNTVYLQMNSLKPEDTAVYYCNKAGYPIADPTAGKRQFDNWGHGTQVTVSS,low polyreactivity
19,QVQLVESGGGLVQAGGSLRLSCAASGRIFYVYAMGGYRQAPGKERELVAGITSGGSTTYADSVKGRFTISRDNAKNTVYLQMNSLKPEDTAVYYCAALQRQSYWTYGYWGHGTQVTVSS,high polyreactivity
20,QVQLVESGGGLVQAGGSLRLSCAASGRIVRNAIGWYRQAPGKERELVAAISRSGGSTYYADSVKGRFTISRDNAKNTVYLQMNSLKPEDTAVYYCDKRSTSQSLQGEYWGQGTQVTVSS,high polyreactivity
21,QVQLVESGGGLVQAGGSLRLSCAASGSTFLYYDMGWYRQAPGKERELVATITRGGSTYYADSVKGRFTISRDNAKNTVYLQMNSLKPEDTAVYYCAAYRWGILSAYYYAWYGYWGQGTQVTVSS,low polyreactivity
